According to PMC3459938:
pKd: −log10 of the molar value.

How the values were obtained:
Test in all cases: ELISA
[1] = biological target: WW2-GFP (construct 7) (human) (UniProt P46934)
WW3-GFP (human) = WW3-GFP (human) (UniProt P46934)
[2] = biological target: WW4-GFP (construct 9) (human) (UniProt P46934)
WW_(2-3-4)-GFP (human) = WW_(2-3-4)-GFP (human) (UniProt P46934)
[3] = biological target: construct 2 (WW2-WW3-GFP, natural linker) (human) (UniProt P46934)
[4] = biological target: construct 4 (two WW domains joined by QGLQNEE, GFP fusion)
[5] = biological target: construct 5 (two WW domains joined by QGLQNEE, GFP fusion)

Adenovirus serotype 3 Penton-Dodecahedron (from UniProt Q2Y0H9 1-544; P04501 1-319) (complex)
percent Pt-Dd binding relative to WW (2-3-4)-GFP [1]: 13%
pKd (WW3-GFP (human)): 10.08
percent Pt-Dd binding relative to WW (2-3-4)-GFP (WW3-GFP (human)): 80%
percent Pt-Dd binding relative to WW (2-3-4)-GFP [2]: 40%
pKd (WW_(2-3-4)-GFP (human)): 10.28
decrease in affinity relative to WW (2-3-4)-GFP [3]: 20%
decrease in affinity relative to WW (2-3-4)-GFP [4]: 20%
decrease in affinity relative to WW (2-3-4)-GFP [5]: 20%
